The text below walks through data of PMC4833398.

In general, stoichiometry N refers to a count of units in the complex or per binding partner. As usually defined, the Kd is the free concentration of one partner at which half of the binding sites on the other are occupied at equilibrium, for simple one-to-one binding. A low value points to tighter binding.

In experiment [1] the target is 1VH8-scaffolded V1V2 from HIV-1 strain CAP256-SU (trimeric scaffold). In words: crystal structure.
The target in experiment [2] is these trimeric scaffolded V1V2s (1VH8- and 4F2K-scaffolded), expressed and purified in GnTI- cells. In words: SPR. In general terms: In SPR one partner is held on a chip, and binding of the other changes the refractive index at the surface.

In turn, “1VH8-scaffolded V1V2 from HIV-1 strain CAP256-SU (trimeric scaffold)” yielded a stoichiometry N in experiment [1] of 3.

B1: bNAb PG9 (antibody, V domains shown)
VH: QRLVESGGGVVQPGSSLRLSCAASGFDFSRQGMHWVRQAPGQGLEWVAFIKYDGSEKYHADSVWGRLSISRDNSKDTLYLQMNSLRVEDTATYFCVREAGGPDYRNGYNYYDFYDGYYNYHYMDVWGKGTTVTVSS
VL: QSALTQPASVSGSPGQSITISCNGTSNDVGGYESVSWYQQHPGKAPKVVIYDVSKRPSGVSNRFSGSKSGNTASLTISGLQAEDEGDYYCKSLTSTRRRVFGTGTKLTVL
B1 came in with a Kd in experiment [2] of 0.024 to 0.5 µM.

B2: bNAb CH01 (antibody, V domains shown)
VH: EVQLVESGANVVRPGGSLRLSCKASGFIFENFGFSWVRQAPGKGLQWVAGLNWNGGDTRYADSVKGRFRMSRDNSRNFVYLDMDKVGVDDTAFYYCARGTDYTIDDAGIHYQGSGTFWYFDLWGRGTLVSVSS
VL: EIVLAQSPGTLSLSPGERATLSCRASHNVHPKYFAWYQQKPGQSPRLLIYGGSTRAAGIPGKFSGSGSGTDFTLTISRVDPEDFAVYYCQQYGGSPYTFGQGTKVEIK
On to B2, for which the Kd in experiment [2] is 20 to 50 µM.
